Test results taken from article PMC10221034 (2023).

B1: wild-type rTpiA (recombinant Streptococcus pneumoniae D39 triosephosphate isomerase) [Streptococcus pneumoniae D39] / human plasma plasminogen [human] (parent complex)
chain 1: SRKPFIAGNWKMNKNPEEAKAFVEAVASKLPSSDLVEAGIAAPALDLTTVLAVAKGSNLKVAAQNCYFENAGAFTGETSPQVLKEIGTDYVVIGHSERRDYFHETDEDINKKAKAIFANGMLPIICCGESLETYEAGKAAEFVGAQVSAALAGLTAEQVAASVIAYEPIWAIGTGKSASQDDAQKMCKVVRDVVAADFGQEVADKVRVQYGGSVKPENVASYMACPDVDGALVGGASLEAESFLALLDFVK
chain 2: EPLDDYVNTQGASLFSVTKKQLGAGSIEECAAKCEEDEEFTCRAFQYHSKEQQCVIMAENRKSSIIIRMRDVVLFEKKVYLSECKTGNGKNYRGTMSKTKNGITCQKWSSTSPHRPRFSPATHPSEGLEENYCRNPDNDPQGPWCYTTDPEKRYDYCDILECEEECMHCSGENYDGKISKTMSGLECQAWDSQSPHAHGYIPSKFPNKNLKKNYCRNPDRELRPWCFTTDPNKRWELCDIPRCTTPPPSSGPTYQCLKGTGENYRGNVAVTVSGHTCQHWSAQTPHTHNRTPENFPCKNLDENYCRNPDGKRAPWCHTTNSQVRWEYCKIPSCDSSPVSTEQLAPTAPPELTPVVQDCYHGDGQSYRGTSSTTTTGKKCQSWSSMTPHRHQKTPENYPNAGLTMNYCRNPDADKGPWCFTTDPSVRWEYCNLKKCSGTEASVVAPPPVVLLPDVETPSEEDCMFGNGKGYRGKRATTVTGTPCQDWAAQEPHRHSIFTPETNPRAGLEKNYCRNPDGDVGGPWCYTTNPRKLYDYCDVPQCAAPSFDCGKPQVEPKKCPGRVVGGCVAHPHSWPWQVSLRTRFGMHFCGGTLISPEWVLTAAHCLEKSPRPSSYKVILGAHQEVNLEPHVQEIEVSRLFLEPTRKDIALLKLSSPAVITDKVIPACLPSPNYVVADRTECFITGWGETQGTFGAGLLKEAQLPVIENKVCNRYEFLNGRVQSTELCAGHLAGGTDSCQGDSGGPLVCFEKDKYILQGVTSWGLGCARPNKPGVYVRVSRFVTWIEGVMRNN

Variants of: B1
Experiment: ELISA; rTpiA protein-coated microtiter plate; measured 60 min after substrate addition; n = 9; parent: 1.4; read off a plot

| Variant | response [A405] |
| --- | --- |
| chain 1 K3A | ~1.3 |
| chain 1 K185A | ~1.3 |
| chain 1 K111A | ~1.3 |
| chain 1 K111A, chain 1 K112A, chain 1 K114A | ~0.86 |
| chain 1 K11A | ~1.3 |
| chain 1 K20A | ~1.3 |
| chain 1 K29A | ~1.2 |
| chain 1 K188A | ~1.3 |
| chain 1 K205A | ~1.3 |
| chain 1 K60A | ~1.3 |
| chain 1 K176A | ~1.3 |
| chain 1 K138A | ~1.3 |
| chain 1 K55A | ~1.3 |
| chain 1 K215A | ~1.4 |
| chain 1 K14A | ~1.3 |
| chain 1 K251A | ~0.14 |
| chain 1 K84A | ~1.2 |
| chain 1 K112A | ~1.2 |
| chain 1 K114A | ~1.3 |
